Reference: publication PMC11317129, “Bacterial histone HBb from Bdellovibrio bacteriovorus compacts DNA by bending” (Nucleic Acids Research, 2023)

T1: HBb (Bd0055) (Bdellovibrio bacteriovorus HD100, UniProt Q6MRM1 1-64)
T1 sequence: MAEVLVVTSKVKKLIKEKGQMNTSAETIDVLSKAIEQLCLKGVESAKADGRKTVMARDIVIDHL


Experiments:
HBb (Bd0055) [1] = target: T1, HBb (Bd0055); assay: MST; unit printed as M (symbol lost); 10 nM DNA; MST: 20 mM Tris pH 8.0, 150 mM NaCl, 2.5 mM 2-mercaptoethanol, 37 C 10 min (HMfB RT 5 min); EMSA 80 bp: 25 mM Tris pH 8.0, 50 mM NaCl, 50 mM KCl, 37 C; ladder EMSA/MNase/circularization: 50 mM Tris pH 7.0, 75 mM KCl, RT; conditions: protein: recombinant; tags: N-terminal His6 (vector pETHis1a); chain copies: 2; label: 5' Cy5 on strand 1; blunt
HMfB = HMfB (Methanothermus fervidus, UniProt P19267 1-69); assay: MST; unit printed as M (symbol lost); 20 nM in HMfB titration; MST: 20 mM Tris pH 8.0, 150 mM NaCl, 2.5 mM 2-mercaptoethanol, 37 C 10 min (HMfB RT 5 min); EMSA 80 bp: 25 mM Tris pH 8.0, 50 mM NaCl, 50 mM KCl, 37 C; ladder EMSA/MNase/circularization: 50 mM Tris pH 7.0, 75 mM KCl, RT; conditions: protein: recombinant; tags: N-terminal His6 (vector pET28a); chain copies: 4; label: 5' Cy5 on strand 1; blunt
HBb (Bd0055) [2] = target: T1, HBb (Bd0055); assay: MST; unit printed as M (symbol lost); text says lower micromolar; 10 nM DNA; MST: 20 mM Tris pH 8.0, 150 mM NaCl, 2.5 mM 2-mercaptoethanol, 37 C 10 min (HMfB RT 5 min); EMSA 80 bp: 25 mM Tris pH 8.0, 50 mM NaCl, 50 mM KCl, 37 C; ladder EMSA/MNase/circularization: 50 mM Tris pH 7.0, 75 mM KCl, RT; conditions: protein: recombinant; tags: N-terminal His6 (vector pETHis1a); chain copies: 2; label: 5' Cy5 on strand 1; blunt
[3] = target: the molecule itself; assay: SEC-MALS; purified HBb in solution; 1260 Infinity II HPLC with miniDAWN TREOS and Optilab T-rEX detectors

HMfB, sequence (P19267 whole entry): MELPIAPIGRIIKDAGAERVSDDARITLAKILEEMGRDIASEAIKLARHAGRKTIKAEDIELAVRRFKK

Binder	Kd (HBb (Bd0055) [1]) [µM]	Kd (HMfB) [µM]	Kd (HBb (Bd0055) [2]) [µM]	stoichiometry N [3]
80 bp-GC50 [Cy5] (dsDNA) DNA 1: TTAAAGCCCGTTAAAGCCCGTTAAAGCCCGTTAAAGCCCGTTAAAGCCCGTTAAAGCCCGTTAAAGCCCGTTAAAGCCCG DNA 2: CGGGCTTTAACGGGCTTTAACGGGCTTTAACGGGCTTTAACGGGCTTTAACGGGCTTTAACGGGCTTTAACGGGCTTTAA	11.1 ± 1.07	3.92 ± 1.16	–	–
80 bp DNA [Cy5] (dsDNA) DNA 1: CCGTACTGTCGTCTGCGGCCTTTGATTATCAATTAAAGCGTTCTACGGCGTTTTTGATCGCTCAACGTGCGGAGCTAGAT DNA 2: ATCTAGCTCCGCACGTTGAGCGATCAAAAACGCCGTAGAACGCTTTAATTGATAATCAAAGGCCGCAGACGACAGTACGG	–	0.83 ± 0.27	4.84 ± 0.97	–
bacterial histone HBb (Histone of B. bacteriovorus) (natural protein, Bdellovibrio bacteriovorus, theoretical molecular weight 7 kDa; Homodimer by SEC-MALS and in the crystals; also called Bd0055) MAEVLVVTSKVKKLIKEKGQMNTSAETIDVLSKAIEQLCLKGVESAKADGRKTVMARDIVIDHL	–	–	–	2
